Measured values published in US9499608.

Tests used:
[1] = target: WNV DIII fragment (residues 296-404) of the New York 1999 strain, expressed in E. coli and refolded (West Nile virus, New York 1999 strain) (UniProt Q9Q6P4); experiment: SPR
[2] = target: WNV E ectodomain (residues 1-404) of the New York 1999 strain, expressed in E. coli and refolded (West Nile virus, New York 1999 strain) (UniProt Q9Q6P4); experiment: SPR

Substance | Kd [1] [nM] | Kd [2] [nM]
mHu-E16 (mammalian CHO cell-produced humanized E16 monoclonal antibody) | 32 | 45
pHu-E16 (plant-produced humanized E16 monoclonal antibody against West Nile virus) | 41 | 46
